Here are results for five molecules from PMC4681132 (Nature, 2015).

T1: RNA polymerase III subunit C160 (S. cerevisiae, UniProt P04051 1-1460)
T1 sequence: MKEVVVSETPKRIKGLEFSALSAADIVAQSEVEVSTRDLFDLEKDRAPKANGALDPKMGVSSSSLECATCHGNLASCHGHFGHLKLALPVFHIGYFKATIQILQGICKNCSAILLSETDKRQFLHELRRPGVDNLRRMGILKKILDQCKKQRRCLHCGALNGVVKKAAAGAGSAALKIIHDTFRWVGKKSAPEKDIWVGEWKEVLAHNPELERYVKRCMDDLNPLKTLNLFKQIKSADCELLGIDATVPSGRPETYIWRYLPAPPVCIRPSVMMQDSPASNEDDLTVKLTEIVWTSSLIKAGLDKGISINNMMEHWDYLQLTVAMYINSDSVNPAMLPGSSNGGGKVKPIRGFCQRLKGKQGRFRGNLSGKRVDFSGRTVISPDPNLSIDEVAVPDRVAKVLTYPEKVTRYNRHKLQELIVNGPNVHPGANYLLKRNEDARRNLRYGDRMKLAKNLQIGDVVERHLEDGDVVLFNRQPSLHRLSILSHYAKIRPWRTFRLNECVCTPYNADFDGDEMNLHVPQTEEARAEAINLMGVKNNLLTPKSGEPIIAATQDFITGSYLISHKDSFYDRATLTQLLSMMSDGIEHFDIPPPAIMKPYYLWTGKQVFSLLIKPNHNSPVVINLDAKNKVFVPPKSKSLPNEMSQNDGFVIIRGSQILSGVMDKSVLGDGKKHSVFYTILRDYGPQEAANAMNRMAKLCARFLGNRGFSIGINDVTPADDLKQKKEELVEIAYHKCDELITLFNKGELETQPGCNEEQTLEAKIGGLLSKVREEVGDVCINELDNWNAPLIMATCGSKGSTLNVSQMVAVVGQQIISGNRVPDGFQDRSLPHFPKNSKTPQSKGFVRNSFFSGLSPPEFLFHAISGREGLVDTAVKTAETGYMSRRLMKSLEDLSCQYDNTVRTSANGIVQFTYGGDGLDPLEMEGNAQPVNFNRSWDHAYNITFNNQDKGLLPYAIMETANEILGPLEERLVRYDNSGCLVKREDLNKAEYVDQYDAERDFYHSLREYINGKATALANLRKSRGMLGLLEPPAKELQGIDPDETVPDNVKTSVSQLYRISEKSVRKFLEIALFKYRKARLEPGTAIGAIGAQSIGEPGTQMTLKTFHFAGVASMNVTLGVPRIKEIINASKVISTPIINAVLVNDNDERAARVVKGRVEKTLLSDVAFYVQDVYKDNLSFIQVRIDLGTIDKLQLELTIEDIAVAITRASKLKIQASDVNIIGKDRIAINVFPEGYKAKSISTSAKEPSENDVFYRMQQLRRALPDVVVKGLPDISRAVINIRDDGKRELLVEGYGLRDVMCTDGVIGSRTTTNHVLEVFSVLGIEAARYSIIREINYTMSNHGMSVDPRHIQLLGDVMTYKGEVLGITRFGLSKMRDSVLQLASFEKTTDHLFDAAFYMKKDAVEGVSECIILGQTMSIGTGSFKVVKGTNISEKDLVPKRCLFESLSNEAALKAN

B1: RNA polymerase III subunit C34 (natural protein, S. cerevisiae)
chain: MSGMIENGLQLSDNAKTLHSQMMSKGIGALFTQQELQKQMGIGSLTDLMSIVQELLDKNLIKLVKQNDELKFQGVLESEAQKKATMSAEEALVYSYIEASGREGIWSKTIKARTNLHQHVVLKCLKSLESQRYVKSVKSVKFPTRKIYMLYSLQPSVDITGGPWFTDGELDIEFINSLLTIVWRFISENTFPNGFKNFENGPKKNVFYAPNVKNYSTTQEILEFITAAQVANVELTPSNIRSLCEVLVYDDKLEKVTHDCYRVTLESILQMNQGEGEPEAGNKALEDEEEFSIFNYFKMFPASKHDKEVVYFDEWTI
B2: RNA polymerase III subunit C82 (natural protein, S. cerevisiae)
chain: MDELLGEALSAENQTGESTVESEKLVTPEDVMTISSLEQRTLNPDLFLYKELVKAHLGERAASVIGMLVALGRLSVRELVEKIDGMDVDSVKTTLVSLTQLRCVKYLQETAISGKKTTYYYYNEEGIHILLYSGLIIDEIITQMRVNDEEEHKQLVAEIVQNVISLGSLTVEDYLSSVTSDSMKYTISSLFVQLCEMGYLIQISKLHYTPIEDLWQFLYEKHYKNIPRNSPLSDLKKRSQAKMNAKTDFAKIINKPNELSQILTVDPKTSLRIVKPTVSLTINLDRFMKGRRSKQLINLAKTRVGSVTAQVYKIALRLTEQKSPKIRDPLTQTGLLQDLEEAKSFQDEAELVEEKTPGLTFNAIDLARHLPAELDLRGSLLSRKPSDNKKRSGSNAAASLPSKKLKTEDGFVIPALPAAVSKSLQESGDTQEEDEEEEDLDADTEDPHSASLINSHLKILASSNFPFLNETKPGVYYVPYSKLMPVLKSSVYEYVIASTLGPSAMRLSRCIRDNKLVSEKIINSTALMKEKDIRSTLASLIRYNSVEIQEVPRTADRSASRAVFLFRCKETHSYNFMRQNLEWNMANLLFKKEKLKQENSTLLKKANRDDVKGRENELLLPSELNQLKMVNERELNVFARLSRLLSLWEVFQMA
B3: RNA polymerase III subunit C31 (natural protein, S. cerevisiae, UniProt P17890 1-251, looked up)
chain: MSSYRGGSRGGGSNYMSNLPFGLGYGDVGKNHITEFPSIPLPINGPITNKERSLAVKYINFGKTVKDGPFYTGSMSLIIDQQENSKSGKRKPNIILDEDDTNDGIERYSDKYLKKRKIGISIDDHPYNLNLFPNELYNVMGINKKKLLAISKFNNADDVFTGTGLQDENIGLSMLAKLKELAEDVDDASTGDGAAKGSKTGEGEDDDLADDDFEEDEDEEDDDDYNAEKYFNNGDDDDYGDEEDPNEEAAF
B4: Pol III stalk (subunits C17 and C25) (complex, S. cerevisiae)
chain 1: MKVLEERNAFLSDYEVLKFLTDLEKKHLWDQKSLAALKKSRSKGKQNRPYNHPELQGITRNVVNYLSINKNFINQEDEGEERESSGAKDAEKSGISKMSDESFAELMTKLNSFKLFKAEKLQIVNQLPANMVHLYSIVEECDARFDEKTIEEMLEIISGYA
chain 2: MFILSKIADLVRIPPDQFHRDTISAITHQLNNKFANKIIPNVGLCITIYDLLTVEEGQLKPGDGSSYINVTFRAVVFKPFLGEIVTGWISKCTAEGIKVSLLGIFDDIFIPQNMLFEGCYYTPEESAWIWPMDEETKLYFDVNEKIRFRIEREVFVDVKPKSPKERELEERAQLENEIEGKNEETPQNEKPPAYALLGSCQTDGMGLVSWWE
B5: RNA polymerase III stalk subunit C25 (natural protein, S. cerevisiae)
chain: B4 chain 2

What all share (assay): cryo-EM structure
Assay [1] addresses T1, RNA polymerase III subunit C160.
Assay [2] has as its target B2.
In assay [3] the target is B4.

As to B1, the binding result in assay [1] and in assay [2] was “binds” throughout.

Consider B2, for which the binding result in assay [1] was “binds”.

Regarding B3, the binding result in assay [3] and in assay [2] was “binds” in each case. Regarding B4, the binding result in assay [1] was “binds”.

B5: the binding result in assay [1] is recorded as “binds”.
